Measurements taken from publication PMC9407527 (Proceedings of the National Academy of Sciences of the …, 2022).
One block for each binder: values may come before it. Square brackets hold non-standard residues; d marks the D form. Ends that are not written are not given here. * marks the point of attachment. MTSL = spin label, CC1(C)C=C(CS*)C(C)(C)N1[O]; pS = N[C@@H](COP(=O)(O)O)C(=O)O

How the values were obtained:
[1] = biological target: T1, fluorescent-tagged His-tagged occludin 413–522 (human, UniProt Q16625 413-522, fluorescent label from the MonolithNT His-Tag Labeling Kit (NanoTemper)); test: MST
T1 sequence (looked up): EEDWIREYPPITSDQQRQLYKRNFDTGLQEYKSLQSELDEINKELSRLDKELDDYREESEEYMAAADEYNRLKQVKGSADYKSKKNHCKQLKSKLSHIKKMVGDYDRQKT

[2] = biological target: T2, occludin 413–522 α-helical bundle (NMR construct with the N-terminal extension GPLGS) (human, UniProt Q16625 413-522); test: NMR paramagnetic relaxation enhancement
T2 sequence: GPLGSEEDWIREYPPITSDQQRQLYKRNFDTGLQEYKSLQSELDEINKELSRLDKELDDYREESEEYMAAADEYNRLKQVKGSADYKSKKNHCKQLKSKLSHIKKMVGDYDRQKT

Kd [1]: 37 ± 15 µM
B1: synthetic occludin 383–412 peptide phosphorylated at S408 (peptide)
peptide: AKGRAGRSKRTEQDHYETDYTTGGE[pS]CDEL

Kd [1]: 175 ± 27 µM
B2: synthetic occludin 383–412 peptide, nonphosphorylated (peptide)
peptide: AKGRAGRSKRTEQDHYETDYTTGGESCDEL

Second part, the binder before the results:

B3: occludin 383–412^S408D unstructured region peptide, MTSL-labelled at C409 (peptide, UniProt Q16625 383-412, looked up)
chain: AKGRAGRSKRTEQDHYETDYTTGGEDC(MTSL)DEL
binding result [2]: binds

B4: occludin 383–412^S408A unstructured region peptide, MTSL-labelled at C409 (peptide, UniProt Q16625 383-412, looked up)
chain: AKGRAGRSKRTEQDHYETDYTTGGEAC(MTSL)DEL
binding result [2]: binds
